Assay results taken from publication PMC13233068, “HSD17B7 is required for the function of sensory hair cells by regulating cholesterol synthesis” (eLife, 2026).

Molecular target: T1, GST-HSD17B7 fusion protein (human, UniProt P56937-1 1-341)
T1 construct: HSD17B7 (17β-hydroxysteroid dehydrogenase type 7), human, full-length cDNA amplified from HEK293T cDNA; 341 aa by the domain limits printed (1-229, 230-250, 251-341); also called 17β-Hydroxysteroid dehydrogenase type 7
T1 sequence (looked up): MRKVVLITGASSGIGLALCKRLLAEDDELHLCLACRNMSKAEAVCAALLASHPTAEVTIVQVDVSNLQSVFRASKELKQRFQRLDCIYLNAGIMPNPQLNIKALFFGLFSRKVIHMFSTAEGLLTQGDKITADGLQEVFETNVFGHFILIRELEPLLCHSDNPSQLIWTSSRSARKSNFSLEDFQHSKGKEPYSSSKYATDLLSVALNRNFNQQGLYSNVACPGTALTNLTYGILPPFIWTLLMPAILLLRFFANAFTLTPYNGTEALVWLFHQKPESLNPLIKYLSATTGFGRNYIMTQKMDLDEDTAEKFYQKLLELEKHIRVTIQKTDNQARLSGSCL
Test: pull-down; GST and GST-HSD17B7 immobilised on GSH resin, incubated with purified His-RER1 overnight at 4°C, washed with 0.3% PBST; Coomassie staining and western blot
Conditions: both partners purified

binding result: binds
B1: RER1-His (natural protein, human (cDNA from HEK293T), UniProt O15258 1-196, looked up)
chain: MSEGDSVGESVHGKPSVVYRFFTRLGQIYQSWLDKSTPYTAVRWVVTLGLSFVYMIRVYLLQGWYIVTYALGIYHLNLFIAFLSPKVDPSLMEDSDDGPSLPTKQNEEFRPFIRRLPEFKFWHAATKGILVAMVCTFFDAFNVPVFWPILVMYFIMLFCITMKRQIKHMIKYRYIPFTHGKRRYRGKEDAGKAFAS
notes: RER1, full-length cDNA amplified from HEK293T cDNA; The legend prints RER1-His, the methods His-RER1; the pET-23b vector would add a C-terminal His tag (surmised); Detected by immunoblot of the His tag; also called His-RER1; ER retention receptor RER1
